According to paper doi:10.1101/2025.07.21.665923 (bioRxiv, 2025):
Like-named read-outs stand apart in the source and are kept apart here. Each block holds one molecule with its values, some of them ahead of it. Where no end group is shown, it is not given here. TAMRA = tetramethylrhodamine

What was measured:
[1] = target: NaPi-IIa peptide (15 C-terminal residues of NaPi-IIa), TAMRA-labelled (human (identical in mouse)); assay: fluorescence polarisation
[2] = target: URAT1 peptide (15 C-terminal residues of human URAT1), TAMRA-labelled (human); assay: fluorescence polarisation
[3] = target: N-terminally biotinylated URAT1 peptide (human); assay: SPR
full-length mouse Pdzk1 = target: T1, full-length mouse Pdzk1 (mouse, UniProt Q9JIL4 1-519); assay: fluorescence polarisation
T1 sequence (looked up): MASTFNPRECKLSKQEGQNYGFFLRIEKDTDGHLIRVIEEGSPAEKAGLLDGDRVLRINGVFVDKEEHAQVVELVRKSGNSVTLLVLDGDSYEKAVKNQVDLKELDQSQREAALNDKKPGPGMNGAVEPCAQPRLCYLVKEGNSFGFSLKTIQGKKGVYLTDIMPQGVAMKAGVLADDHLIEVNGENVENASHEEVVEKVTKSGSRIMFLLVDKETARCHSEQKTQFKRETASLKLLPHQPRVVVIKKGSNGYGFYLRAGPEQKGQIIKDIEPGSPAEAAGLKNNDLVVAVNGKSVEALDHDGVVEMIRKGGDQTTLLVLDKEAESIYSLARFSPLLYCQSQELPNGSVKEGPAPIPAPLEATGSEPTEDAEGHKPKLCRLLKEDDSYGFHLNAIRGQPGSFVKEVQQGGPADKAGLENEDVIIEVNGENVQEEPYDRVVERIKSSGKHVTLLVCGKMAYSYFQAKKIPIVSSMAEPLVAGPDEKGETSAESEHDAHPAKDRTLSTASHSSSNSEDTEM

full-length mouse Nherf1 = target: T2, full-length mouse Nherf1 (mouse, UniProt P70441 1-355); assay: fluorescence polarisation
T2 sequence (looked up): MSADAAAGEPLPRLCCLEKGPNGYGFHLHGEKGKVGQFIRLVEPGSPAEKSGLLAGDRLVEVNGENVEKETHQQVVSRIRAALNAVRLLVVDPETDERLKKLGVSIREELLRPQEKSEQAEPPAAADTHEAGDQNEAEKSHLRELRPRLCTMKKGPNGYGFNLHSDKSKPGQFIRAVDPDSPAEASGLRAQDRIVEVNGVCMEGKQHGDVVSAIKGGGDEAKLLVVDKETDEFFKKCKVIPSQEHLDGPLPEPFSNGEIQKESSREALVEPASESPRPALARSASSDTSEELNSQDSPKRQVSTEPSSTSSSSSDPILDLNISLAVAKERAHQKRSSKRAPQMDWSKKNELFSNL

full-length human NHERF1 = target: T3, full-length human NHERF1 (human, UniProt O14745 1-358); assay: fluorescence polarisation
T3 sequence (looked up): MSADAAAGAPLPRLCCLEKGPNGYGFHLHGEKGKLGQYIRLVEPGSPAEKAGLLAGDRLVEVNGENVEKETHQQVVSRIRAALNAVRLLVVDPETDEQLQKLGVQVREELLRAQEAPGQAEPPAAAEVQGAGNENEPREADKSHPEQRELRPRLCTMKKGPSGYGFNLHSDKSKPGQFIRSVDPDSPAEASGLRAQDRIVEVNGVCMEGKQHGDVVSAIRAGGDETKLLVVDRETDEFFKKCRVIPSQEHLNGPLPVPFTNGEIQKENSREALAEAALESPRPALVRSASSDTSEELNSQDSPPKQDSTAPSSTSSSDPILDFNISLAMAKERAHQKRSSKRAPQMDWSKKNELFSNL

[4] = target: T4, full-length human PDZK1 (NHE3 regulatory factor 3, NHERF3) (human, UniProt Q5T2W1 1-519); assay: fluorescence polarisation
T4 sequence (looked up): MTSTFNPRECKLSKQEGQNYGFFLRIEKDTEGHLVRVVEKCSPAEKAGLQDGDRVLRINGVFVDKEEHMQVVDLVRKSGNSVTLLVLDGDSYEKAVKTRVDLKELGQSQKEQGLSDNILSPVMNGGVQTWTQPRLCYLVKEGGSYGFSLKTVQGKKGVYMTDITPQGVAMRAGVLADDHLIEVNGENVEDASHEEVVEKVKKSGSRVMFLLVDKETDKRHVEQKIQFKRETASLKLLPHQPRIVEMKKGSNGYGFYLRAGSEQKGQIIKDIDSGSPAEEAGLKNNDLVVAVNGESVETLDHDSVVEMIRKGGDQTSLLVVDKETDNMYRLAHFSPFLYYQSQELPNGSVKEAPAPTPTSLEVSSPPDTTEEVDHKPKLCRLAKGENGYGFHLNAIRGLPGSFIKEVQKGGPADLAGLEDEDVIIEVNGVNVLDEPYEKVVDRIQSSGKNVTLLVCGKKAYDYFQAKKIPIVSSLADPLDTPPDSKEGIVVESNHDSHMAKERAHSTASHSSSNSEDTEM

[5] = target: T4, full-length human PDZK1 (NHE3 …); assay: SEC
[6] = target: T4, full-length human PDZK1 (NHE3 …); assay: SEC; remark: listed apart in the source

Molecule: PDZ1 domain of human NHERF1 (1PDZ1), C-terminal His8-tag (domain or fragment)
- Kd [1]: 4.4 µM

Molecule: PDZ1 domain of human PDZK1 (3PDZ1), tag-less (domain or fragment)
- Kd [1]: 12.5 µM
- Kd [2]: 0.16 µM
- Kd [3]: 1.1 µM
- koff [3]: 0.494 s⁻¹
- kon [3]: 448000 M⁻¹ s⁻¹

Molecule: PDZ2 domain of human PDZK1 (3PDZ2), C-terminal His8-tag (domain or fragment)
- Kd [2]: 22.1 µM

Molecule: PDZ3 domain of human PDZK1 (3PDZ3), C-terminal His8-tag (domain or fragment)
- Kd [2]: > 200 µM

Molecule: THGTLGNSVLKSTQF (not fully specified) [URAT1 peptide fused to the C-terminus of enhanced green fluorescent protein (GFP^URAT1)]
- stoichiometry N [5]: 1.5 GFP^URAT1 per PDZK1 at the peak maximum
- stoichiometry N [6]: 1.4 GFP^URAT1 per PDZK1 at the peak maximum

Molecule: {TAMRA}-THGTLGNSVLKSTQF [URAT1 peptide (15 C-terminal residues of human URAT1), TAMRA-labelled]
- Kd (full-length human NHERF1): > 70 µM

Now from value to molecule:

- Kd [1]: > 170 µM
Molecule: PDZ2 domain of human NHERF1 (1PDZ2), C-terminal His8-tag (domain or fragment)

- Kd [2]: 1.35 µM
- Kd [3]: 1.78 µM
- koff [3]: 0.631 s⁻¹
- kon [3]: 354000 M⁻¹ s⁻¹
Molecule: PDZ4 domain of human PDZK1 (3PDZ4), C-terminal His8-tag (domain or fragment)

- Kd (full-length mouse Pdzk1): 0.026 µM
- Kd (full-length mouse Nherf1): 0.59 µM
Molecule: {TAMRA}-THDTPDGSILMSTRL [Urat1 peptide (15 C-terminal residues of murine Urat1), TAMRA-labelled]

- Kd (full-length human NHERF1): 4 µM
- Kd [4]: 8.1 µM
- Kd (full-length mouse Pdzk1): 4 µM
- Kd (full-length mouse Nherf1): 4.9 µM
Molecule: {TAMRA}-SPRLALPAHHNATRL [NaPi-IIa peptide (15 C-terminal residues of NaPi-IIa), TAMRA-labelled]
